Experimental findings from US20120135912A1 (PERSEID THERAPEUTICS, published 2012) are described below.

In assay [1] the target is T1, human VLA4-Fc (alpha4-Fc/beta1-Fc heterodimer) (human).
T1 construct: Soluble heterodimer from CHO cells, Protein A purified; also called VLA-Fc
The assay can be described thus: SPR (BIACORE), retest with new polypeptide preparations and new VLA4-Fc. As to the method: (§1) The kinetic 2D-VCAM-1 assay measures binding kinetics of a dimeric ligand (e.g., VLA-Fc fusion protein or LPAM-1-Fc fusion protein) coated to sensor chips and monomeric analyte (e.g., 2D-VCAM-1 variant polypeptides) in the mobile phase. Goat anti-human IgG antibody (Jackson ImmunoResearch, Catalog No. 105-005-098) was immobilized on CM-5 sensor chips (GE Healthcare, Catalog No. BR-1000-14) according to the manufacturer's protocol. Antibody was diluted to 30 μg/ml in immobilization buffer (10 mM sodium acetate, pH 5.0 (GE Healthcare, Catalog No. BR-1003-51)). […] Un-reacted sites were quenched with 35 μl of 1 M ethanolamine-HCl pH 8.5 (GE Healthcare, Catalog No. BR-1000-50). This procedure typically yielded 15,000 response units (RU) of coupled antibody. VLA4-Fc or LPAM-1-Fc, prepared as described in Examples 3 and 4, respectively, were bound to antibody-coated sensor chips by injection of 20 μl of ligand solution (20 μg/ml protein in HBS-P-Mn buffer at a flow rate of 10 μl/min). Ligand capture levels were typically 200-300 RU. 2D-VCAM-1 variant polypeptides were diluted in HBS-P-Mn and flowed over ligand-coated sensor chips for 2 min at 30 μl/min, followed by 5 min incubation with in HBS-P-Mn containing no protein at the same flow rate. For 2D-VCAM-1 variant polypeptides having very slow dissociation rates from VLA4-Fc or LPAM-1-Fc, kinetic assays were also conducted using longer dissociation times (e.g., 20 min). Rmax signal levels for 2D-VCAM-1 variant polypeptides ranged from approximately 5-25 RU. Regeneration between cycles was performed by 200 sec incubation with 10 mM glycine buffer (pH 1.7) at 50 μl/min. New chips were subjected to 4-5 cycles of capture/binding/regeneration prior to use in actual experiments. Data from a reference cell containing goat anti-human IgG capture antibody alone was subtracted from data obtained from flow cells containing captured VLA4-Fc or LPAM-1-Fc. Typically, 8 dilutions of 2D-VCAM-1 variant polypeptides ranging from 150 nM to 0.069 nM were analyzed against a blank reference (HBS-P-Mn buffer alone).
(SPR reads the build-up and loss of mass on a sensor chip optically.)

Assay [2] has as its target T2, human LPAM-1-Fc (alpha4-Fc/beta7-Fc heterodimer) (human).
T2 construct: Soluble heterodimer from CHO cells, Protein A purified
Briefly: SPR (BIACORE), retest with new polypeptide preparations and new LPAM-1-Fc. As to the method: In this screening method, Biacore sensor chips were derivatized with anti-human IgG. After capture of VLA4-Fc or LPAM-1-Fc ligands on these surfaces, 2D-VCAM-1 variant polypeptides in buffer were allowed to flow over the ligand-coated sensor chips. The ability of a 2D-VCAM variant polypeptide to bind to a specific binding partner (i.e., VLA4-Fc or LPAM-1-Fc) was evaluated. Control protein (i.e., human 2D-VCAM-1 polypeptide (SEQ ID NO:2) or Q38L-2D-VCAM-1 polypeptide (SEQ ID NO:10)), was also allowed to flow over the ligand-coated sensor chips and the abilities of these molecules to bind to VLA4-Fc or LPAM-1-Fc were similarly evaluated for comparison. Using the Biacore system, the association (kₒₙ) and dissociation (koff) rate constant of the protein of interest binding to VLA4-Fc or LPAM-1-Fc ligands can be evaluated and used to calculate the equilibrium dissociation constant, KD. Variant 2D-VCAM-1 polypeptides having increased binding affinities for VLA4-Fc and/or LPAM-1-Fc, compared to human 2D-VCAM-1 and/or Q38L-2D-VCAM-1, were identified.
All BIACORE analyses were performed on a BIACORE 2000 system or BIACORE 3000 system (GE Healthcare) at room temperature (RT, 25° C.), HBS-P buffer (10 mM Hepes (pH 7.4), 150 mM NaCl, 0.005% surfactant P20) supplemented with 1 mM MnCl₂ (HBS-P-Mn) was used as the flow buffer for all experiments except where indicated.
Table 6B presents binding affinities of representative 2D-VCAM-1 variant polypeptides of the invention to LPAM-1-Fc when retested with new polypeptide preparations and new LPAM-1-Fc ligand and measured by the standard BICORE assay described above. The controls human 2D-VCAM-1 or the Q38L 2D-VCAM-1 polypeptide was not reassayed.

Assay [3] has as its target T2, human LPAM-1-Fc (alpha4-Fc/beta7-Fc …). Briefly: ELISA, LPAM-1-Fc coated, 1 mM MnCl2; from EC50 values. As to the method: The relative binding affinities of various 2D-VCAM variant proteins to immobilized LPAM-1-Fc (α4-Fc/β-7-Fc) heterodimer, relative to a control protein (e.g., Q38L-2D-VCAM-1 or human 2D-VCAM-1), were determined using a solid-phase ELISA assay. MAXISORP™ ELISA plates (NUNC) were coated overnight at 4° C. with 50 ul LPAM-1-Fc heterodimer (2 ug/ml in TBS-M, TBS (25 mM TRIS-HCl pH 7.5, 150 mM NaCl with 1 mM MnCl2), washed with TBS-T (TBS with 0.05% Tween-20), blocked with 200 ul 3% milk in TBS-M for 1 hr at room temperature, and washed again with TBS-T. A four-fold dilution series of the purified 2D-VCAM-1 variants to he assayed was made in COSTAR U-bottom plates in TBS-TMC (TBS with 0.05% Tween-20, 1 mM MnCl2 and 1% casein; Sigma) with a starting concentration of 8.2 uM (200 ug/ml). The dilution, series were transferred into the ELISA plate which was incubated at room temperature for 2 h and subsequently washed with TBS-T. Bound 2D-VCAM-1 protein was detected by incubation with 0.5 ug/ml of biotinylated anti-human VCAM antibody (R&D Systems, Catalog No. BAF809) in TBS-TMC for 1 h at room temperature followed by a TBS-T wash and subsequent incubation with 1:2000 dilution of streptavidin-HRP (BD Biosciences, Catalog No. 554066) in TBS-TMC for 30 min at room temperature. […] Typical development times ranged from 5-15 min and development was stopped by addition of 50 ul 2M H₂SO₄ (EM, Catalog No. SX1244-75). […] Fold-improvement in binding was calculated relative to a control protein (Q38L-2D-VCAM-1) assayed on the same plate.

Assay [4] concerns the target T1, human VLA4-Fc (alpha4-Fc/beta1-Fc …). Briefly: SPR (BIACORE), VLA4-Fc captured by anti-human IgG, 1 mM MnCl2, 1:1 Langmuir. How it is done:
as §1

Assay [5] addresses T2, human LPAM-1-Fc (alpha4-Fc/beta7-Fc …). The assay can be described thus: SPR (BIACORE), LPAM-1-Fc captured by anti-human IgG, 1 mM MnCl2, 1:1 Langmuir. As to the method:
as §1

T1 sequence (chain, as listed by the source limits assumed, form in doubt, chain 1 of 2): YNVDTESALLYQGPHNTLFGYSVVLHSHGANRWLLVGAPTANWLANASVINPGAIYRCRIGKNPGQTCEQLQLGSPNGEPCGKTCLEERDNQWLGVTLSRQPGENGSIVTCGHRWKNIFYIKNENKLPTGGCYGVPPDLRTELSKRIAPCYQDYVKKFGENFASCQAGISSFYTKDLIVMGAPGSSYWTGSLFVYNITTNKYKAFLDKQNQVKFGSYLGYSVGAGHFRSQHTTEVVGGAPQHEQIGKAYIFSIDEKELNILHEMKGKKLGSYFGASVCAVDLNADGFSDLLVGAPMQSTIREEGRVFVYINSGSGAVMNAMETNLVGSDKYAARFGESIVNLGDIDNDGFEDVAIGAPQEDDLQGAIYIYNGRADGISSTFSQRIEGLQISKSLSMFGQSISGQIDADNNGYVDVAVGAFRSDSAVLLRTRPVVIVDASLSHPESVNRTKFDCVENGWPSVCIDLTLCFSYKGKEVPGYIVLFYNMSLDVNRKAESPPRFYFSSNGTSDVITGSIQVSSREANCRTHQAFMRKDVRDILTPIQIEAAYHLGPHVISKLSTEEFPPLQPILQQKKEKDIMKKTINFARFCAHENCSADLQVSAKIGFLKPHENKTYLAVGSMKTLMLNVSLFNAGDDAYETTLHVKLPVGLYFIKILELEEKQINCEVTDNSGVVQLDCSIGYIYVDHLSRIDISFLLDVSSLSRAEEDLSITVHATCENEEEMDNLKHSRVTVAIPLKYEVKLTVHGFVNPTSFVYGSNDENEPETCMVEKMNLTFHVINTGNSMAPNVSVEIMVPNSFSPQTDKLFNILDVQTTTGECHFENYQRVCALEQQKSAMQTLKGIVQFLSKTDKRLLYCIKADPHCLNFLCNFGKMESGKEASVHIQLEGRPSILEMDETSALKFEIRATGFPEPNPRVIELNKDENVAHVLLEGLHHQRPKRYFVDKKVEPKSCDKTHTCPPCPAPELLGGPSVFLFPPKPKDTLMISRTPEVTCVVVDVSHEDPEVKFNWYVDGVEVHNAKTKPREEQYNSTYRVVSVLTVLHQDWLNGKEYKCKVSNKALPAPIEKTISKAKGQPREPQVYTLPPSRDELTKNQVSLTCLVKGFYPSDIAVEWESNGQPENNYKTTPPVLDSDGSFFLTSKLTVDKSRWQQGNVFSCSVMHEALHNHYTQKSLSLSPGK
T1 sequence (chain, as listed by the source limits assumed, form in doubt, chain 2 of 2): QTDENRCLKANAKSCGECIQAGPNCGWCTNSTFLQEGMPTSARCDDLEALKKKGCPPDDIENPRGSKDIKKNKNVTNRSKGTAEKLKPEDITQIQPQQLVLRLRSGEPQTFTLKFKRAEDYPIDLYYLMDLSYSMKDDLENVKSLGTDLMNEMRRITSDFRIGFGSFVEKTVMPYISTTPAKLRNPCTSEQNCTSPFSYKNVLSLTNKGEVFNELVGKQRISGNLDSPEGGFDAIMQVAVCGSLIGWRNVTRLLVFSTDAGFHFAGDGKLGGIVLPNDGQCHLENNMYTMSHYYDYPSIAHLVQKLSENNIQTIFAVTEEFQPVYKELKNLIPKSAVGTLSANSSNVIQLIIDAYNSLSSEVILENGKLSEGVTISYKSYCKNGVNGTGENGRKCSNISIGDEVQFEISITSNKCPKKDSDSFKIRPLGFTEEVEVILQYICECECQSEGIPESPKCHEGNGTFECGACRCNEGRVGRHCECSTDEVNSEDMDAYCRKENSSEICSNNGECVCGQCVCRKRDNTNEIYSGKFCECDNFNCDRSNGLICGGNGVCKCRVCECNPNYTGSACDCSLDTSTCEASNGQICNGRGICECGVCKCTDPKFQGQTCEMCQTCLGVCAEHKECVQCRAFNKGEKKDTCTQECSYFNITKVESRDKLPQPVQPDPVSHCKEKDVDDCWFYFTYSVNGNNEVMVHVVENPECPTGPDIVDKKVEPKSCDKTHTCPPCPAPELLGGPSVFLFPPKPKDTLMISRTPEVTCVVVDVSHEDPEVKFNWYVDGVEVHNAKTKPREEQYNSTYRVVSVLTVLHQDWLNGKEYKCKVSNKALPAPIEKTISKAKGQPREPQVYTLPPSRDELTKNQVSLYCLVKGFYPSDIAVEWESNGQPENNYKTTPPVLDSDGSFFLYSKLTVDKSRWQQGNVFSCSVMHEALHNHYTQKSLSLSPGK
T2 sequence (chain, as listed by the source limits assumed, chain 1 of 2): as the sequence (chain, as listed by the source limits assumed, form in doubt, chain 1 of 2) above
T2 sequence (chain, as listed by the source limits assumed, chain 2 of 2): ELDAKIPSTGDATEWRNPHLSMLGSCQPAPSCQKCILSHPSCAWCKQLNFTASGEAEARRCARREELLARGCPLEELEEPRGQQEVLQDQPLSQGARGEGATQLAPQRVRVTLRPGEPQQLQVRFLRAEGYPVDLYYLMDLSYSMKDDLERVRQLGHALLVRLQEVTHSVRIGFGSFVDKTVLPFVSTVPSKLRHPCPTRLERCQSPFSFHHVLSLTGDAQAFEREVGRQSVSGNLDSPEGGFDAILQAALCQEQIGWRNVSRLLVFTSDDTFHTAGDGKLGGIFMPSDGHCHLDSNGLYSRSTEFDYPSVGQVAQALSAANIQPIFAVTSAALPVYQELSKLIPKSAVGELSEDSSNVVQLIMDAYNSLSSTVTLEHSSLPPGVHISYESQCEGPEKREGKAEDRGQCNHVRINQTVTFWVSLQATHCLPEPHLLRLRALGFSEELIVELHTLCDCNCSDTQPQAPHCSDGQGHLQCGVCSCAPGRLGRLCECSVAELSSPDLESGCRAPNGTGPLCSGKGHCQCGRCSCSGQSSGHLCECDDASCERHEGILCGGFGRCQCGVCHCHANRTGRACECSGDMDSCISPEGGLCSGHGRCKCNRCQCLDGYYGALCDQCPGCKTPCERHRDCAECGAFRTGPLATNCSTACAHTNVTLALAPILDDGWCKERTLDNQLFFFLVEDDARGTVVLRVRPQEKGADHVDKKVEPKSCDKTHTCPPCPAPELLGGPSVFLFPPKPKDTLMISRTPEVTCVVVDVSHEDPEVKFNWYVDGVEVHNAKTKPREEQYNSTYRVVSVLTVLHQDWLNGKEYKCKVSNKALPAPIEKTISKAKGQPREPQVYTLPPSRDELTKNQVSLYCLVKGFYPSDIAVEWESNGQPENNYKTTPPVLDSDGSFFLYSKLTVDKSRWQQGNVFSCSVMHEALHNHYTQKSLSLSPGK

B1: 2D-VCAM-1 variant Clone 46 (ligand)
chain: FKIETTPESRYLAQIGDSVSLTCSTTGCESPFFSWRPQLDAPLNGKVTNEGTTSTLTMNPVSFGNEHSYLCTATCESRKLEKGIQVEIYSFPKDPEIHLSGPLEAGKPITVKCSVADVYPFDRLEIDLLKGDHLMKSQEFLEDADRKSLETKSLEVTFTPVIEDIGKVLVCRAKLHIDEMDSVPTVRQAVKELQVYISP
notes: also called Clone 046; not shown: His tag
In general, Kd refers to the equilibrium constant for the complex coming apart. As to B1, the equilibrium dissociation constant (Kd) in assay [1] amounted to 1.95 nM; in assay [2], 77 nM; in assay [4] it was 0.123 nM; in assay [5], 27.2 nM. In addition, the “fold improvement in binding relative to Q38L-2D-VCAM-1” value in assay [3] stood at 1 fold. In addition, the “binding affinity for VLA4-Fc relative to human 2D-VCAM-1” value in assay [4] is 124 fold. Moreover, the “binding affinity for LPAM-1-Fc relative to human 2D-VCAM-1” value in assay [5] came out at 9 fold.

B2: 2D-VCAM-1 variant Clone 59 (ligand)
chain: FKIETTPESRYLAQIGDSVSLTCSTTGCESPFFSWRPLLDSPLNGKVTNEGTTSTLTMNPVSFGNEHSYLCTATCESRKLEKGIQVEIYSFPKDPEIHLSGPLEAGKPITVKCSVADVYPFDRLEIDLLKGDHLMKSQEFFEDAAWKSLETKSLEVTFTPVIEDIGKVLVCRAKLHIDEMDSVPTVRQAVKELQVYISP
notes: also called Clone 059; not shown: His tag
For the molecule B2, the Kd amounted to 0.095 nM in assay [1], 2.6 nM in assay [2], 0.0501 nM in assay [4] and 0.405 nM in assay [5]. For the same molecule, the “fold improvement in binding relative to Q38L-2D-VCAM-1” value in assay [3] was found to be 80 fold. In addition, in assay [4], the “binding affinity for VLA4-Fc relative to human 2D-VCAM-1” value came out at 303 fold. Further, in assay [5], the “binding affinity for LPAM-1-Fc relative to human 2D-VCAM-1” value amounted to 612 fold.

B3: 2D-VCAM-1 variant Clone 146 (ligand, not shown: small tags and cut ends)
chain: FKIETTPESRYLAQIGDSVSLTCSTTGCESPLFFWRPLLDSPLNGKVTNEGTTSTLTMNPVSFGNEHSYLCTARCESRSLEKGIQVEIYSFPKDPEIHLSGPLEAGKPITVKCSVADVYPFDRLEIDLLKGDHLMKSQEFLEDADRKSLETKSLEVTFTPVIEDIGKVLVCRAKLHIDEMDSVPTVRQAVKELQVYISP
As to B3, in assay [2], the dissociation constant Kd was found to be 1.2 nM. In assay [3], the “fold improvement in binding relative to Q38L-2D-VCAM-1” value was 74 fold. In addition, in assay [5], the Kd stood at 0.439 nM and the “binding affinity for LPAM-1-Fc relative to human 2D-VCAM-1” value came out at 565 fold.

B4: Q38L-2D-VCAM-1 (ligand)
chain: FKIETTPESRYLAQIGDSVSLTCSTTGCESPFFSWRTLIDSPLNGKVTNEGTTSTLTMNPVSFGNEHSYLCTATCESRKLEKGIQVEIYSFPKDPEIHLSGPLEAGKPITVKCSVADVYPFDRLEIDLLKGDHLMKSQEFLEDADRKSLETKSLEVTFTPVIEDIGKVLVCRAKLHIDEMDSVPTVRQAVKELQVYISP
notes: also called Q38L 2D-VCAM-1 polypeptide; not shown: His tag
B4: the “fold improvement in binding relative to Q38L-2D-VCAM-1” value in assay [3] is 1 fold. Moreover, in assay [4], the Kd came to 1.87 nM and the “binding affinity for VLA4-Fc relative to human 2D-VCAM-1” value came out at 8 fold. In assay [5], binding was put at a Kd of 20.5 nM and the “binding affinity for LPAM-1-Fc relative to human 2D-VCAM-1” value stood at 12 fold.

B5: 2D-VCAM-1 variant Clone 47 (ligand)
chain: FKIETTPESRYLAQIGDSVSLTCSTTGCESPFFSWRPLLDSPLNGKVTNEGTTSTLTMNPVSFGNEHSYLCTATCESRKLEKGIQVEIYSFPKDPEIHLSGPLEAGKPITVKCSVADVYPFDRLEIDLLKGDHLMKSQEFLEDADRKSLETKSLEVTFTPVIEDIGKVLVCRAKLHIDEMDSVPTVRQAVKELQVYISP
notes: also called Clone 047; not shown: His tag
Take B5: the Kd amounted to 0.68 nM in assay [1], 40 nM in assay [2], 0.148 nM in assay [4] and 6.54 nM in assay [5]. The “fold improvement in binding relative to Q38L-2D-VCAM-1” value in assay [3] amounted to 17 fold. In addition, the “binding affinity for VLA4-Fc relative to human 2D-VCAM-1” value in assay [4] was 103 fold. Further, the “binding affinity for LPAM-1-Fc relative to human 2D-VCAM-1” value in assay [5] was 38 fold.
